What was measured:
Assay in all cases: co-IP; Flag-tagged EGFL7 co-expressed with V5-tagged Notch ECDs or Notch1-ECD deletion mutants in HEK293; lysate immunoprecipitated with Immunosorb A overnight at 4 °C; quantitative western blot (Odyssey); n=3
[1] = biological target: T1, V5-tagged Notch2 extracellular domain (UniProt O35516 26-1679); conditions: partners not purified
T1 construct: Notch2, extracellular domain; source: HEK293, transiently transfected, in lysate

[2] = biological target: T2, V5-tagged Notch4 extracellular domain (UniProt P31695 21-1443); conditions: partners not purified
T2 construct: Notch4, extracellular domain; source: HEK293, transiently transfected, in lysate
T2 sequence (looked up): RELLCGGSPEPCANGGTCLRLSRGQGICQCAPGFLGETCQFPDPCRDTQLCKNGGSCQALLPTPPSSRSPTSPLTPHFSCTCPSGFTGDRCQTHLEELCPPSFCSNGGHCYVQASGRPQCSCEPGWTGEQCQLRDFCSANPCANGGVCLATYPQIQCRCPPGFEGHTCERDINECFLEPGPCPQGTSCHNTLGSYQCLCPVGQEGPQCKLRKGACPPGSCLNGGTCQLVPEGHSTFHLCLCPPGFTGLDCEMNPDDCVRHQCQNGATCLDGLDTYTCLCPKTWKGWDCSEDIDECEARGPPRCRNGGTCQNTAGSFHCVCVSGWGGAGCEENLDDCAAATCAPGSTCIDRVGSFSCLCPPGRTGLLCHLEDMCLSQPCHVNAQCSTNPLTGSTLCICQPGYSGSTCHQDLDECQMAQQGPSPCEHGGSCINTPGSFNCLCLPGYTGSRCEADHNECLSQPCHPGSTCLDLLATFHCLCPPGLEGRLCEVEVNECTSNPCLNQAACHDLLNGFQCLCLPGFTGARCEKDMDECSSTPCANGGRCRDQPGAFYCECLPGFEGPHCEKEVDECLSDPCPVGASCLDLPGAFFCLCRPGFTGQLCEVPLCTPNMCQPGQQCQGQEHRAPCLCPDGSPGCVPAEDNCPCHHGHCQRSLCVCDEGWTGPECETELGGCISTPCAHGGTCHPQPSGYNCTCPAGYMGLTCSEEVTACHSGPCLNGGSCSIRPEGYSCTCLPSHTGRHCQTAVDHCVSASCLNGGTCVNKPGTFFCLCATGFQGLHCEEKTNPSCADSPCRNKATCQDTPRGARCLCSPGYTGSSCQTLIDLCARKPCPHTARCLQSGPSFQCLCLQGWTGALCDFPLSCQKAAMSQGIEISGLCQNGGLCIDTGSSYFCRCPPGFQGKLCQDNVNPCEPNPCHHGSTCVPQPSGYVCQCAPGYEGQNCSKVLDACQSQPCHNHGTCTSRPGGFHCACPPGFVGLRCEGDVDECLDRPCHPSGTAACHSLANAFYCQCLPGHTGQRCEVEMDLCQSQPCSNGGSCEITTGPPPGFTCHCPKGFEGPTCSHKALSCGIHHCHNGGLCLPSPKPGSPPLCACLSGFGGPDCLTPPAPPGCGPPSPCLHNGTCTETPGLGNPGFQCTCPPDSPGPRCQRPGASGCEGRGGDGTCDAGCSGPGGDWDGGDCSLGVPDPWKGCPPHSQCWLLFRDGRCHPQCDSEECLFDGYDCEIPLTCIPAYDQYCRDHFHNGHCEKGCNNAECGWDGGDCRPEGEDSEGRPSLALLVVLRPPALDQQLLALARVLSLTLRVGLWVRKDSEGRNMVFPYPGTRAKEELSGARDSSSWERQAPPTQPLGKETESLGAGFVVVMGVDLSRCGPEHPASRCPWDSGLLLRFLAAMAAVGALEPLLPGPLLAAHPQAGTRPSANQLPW

[3] = biological target: T3, V5-tagged Notch3 extracellular domain (UniProt Q61982 40-1643); conditions: partners not purified
T3 construct: Notch3, extracellular domain; source: HEK293, transiently transfected, in lysate
T3 sequence (Q61982 40-1643): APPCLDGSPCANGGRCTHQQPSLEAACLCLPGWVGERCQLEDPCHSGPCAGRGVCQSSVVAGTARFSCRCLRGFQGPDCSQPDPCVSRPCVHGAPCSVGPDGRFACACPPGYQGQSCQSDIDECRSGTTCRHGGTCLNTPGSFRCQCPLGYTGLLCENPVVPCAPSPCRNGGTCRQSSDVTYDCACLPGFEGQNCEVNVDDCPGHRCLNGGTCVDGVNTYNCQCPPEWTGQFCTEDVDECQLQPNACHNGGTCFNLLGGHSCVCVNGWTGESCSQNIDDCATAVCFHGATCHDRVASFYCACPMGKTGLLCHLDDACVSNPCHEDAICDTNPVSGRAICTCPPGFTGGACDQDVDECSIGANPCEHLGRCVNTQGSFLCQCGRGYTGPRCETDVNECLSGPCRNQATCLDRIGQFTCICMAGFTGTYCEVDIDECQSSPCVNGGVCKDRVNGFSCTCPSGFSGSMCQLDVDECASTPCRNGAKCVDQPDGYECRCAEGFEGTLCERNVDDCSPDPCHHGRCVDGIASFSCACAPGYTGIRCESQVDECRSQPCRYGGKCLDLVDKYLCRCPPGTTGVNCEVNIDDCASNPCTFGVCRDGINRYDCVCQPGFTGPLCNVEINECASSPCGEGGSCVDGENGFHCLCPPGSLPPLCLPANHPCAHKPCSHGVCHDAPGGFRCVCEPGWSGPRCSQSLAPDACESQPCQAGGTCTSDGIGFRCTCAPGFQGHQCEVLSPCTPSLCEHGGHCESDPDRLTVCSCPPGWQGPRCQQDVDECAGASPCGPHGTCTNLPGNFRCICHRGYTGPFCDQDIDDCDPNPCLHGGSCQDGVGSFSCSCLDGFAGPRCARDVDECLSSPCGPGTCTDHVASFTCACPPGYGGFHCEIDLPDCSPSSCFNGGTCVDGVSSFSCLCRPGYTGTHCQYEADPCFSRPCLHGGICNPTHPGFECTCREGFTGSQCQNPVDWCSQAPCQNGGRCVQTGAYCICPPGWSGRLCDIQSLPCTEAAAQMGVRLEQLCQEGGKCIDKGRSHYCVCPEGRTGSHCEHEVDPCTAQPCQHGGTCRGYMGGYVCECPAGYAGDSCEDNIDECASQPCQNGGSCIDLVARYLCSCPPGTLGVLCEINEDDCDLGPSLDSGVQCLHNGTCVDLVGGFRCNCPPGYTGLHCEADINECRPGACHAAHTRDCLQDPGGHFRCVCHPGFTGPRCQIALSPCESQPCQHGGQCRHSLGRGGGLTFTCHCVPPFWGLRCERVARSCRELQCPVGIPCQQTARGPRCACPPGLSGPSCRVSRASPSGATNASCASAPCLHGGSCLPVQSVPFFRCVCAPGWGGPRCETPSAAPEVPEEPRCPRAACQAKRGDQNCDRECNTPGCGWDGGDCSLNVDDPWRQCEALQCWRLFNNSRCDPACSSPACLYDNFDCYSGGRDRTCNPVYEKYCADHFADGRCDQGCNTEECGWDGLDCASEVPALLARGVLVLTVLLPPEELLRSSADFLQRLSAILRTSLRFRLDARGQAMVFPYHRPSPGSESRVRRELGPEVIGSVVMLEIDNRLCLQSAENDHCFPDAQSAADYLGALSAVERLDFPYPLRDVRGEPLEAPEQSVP

[4] = biological target: V5-tagged Notch1-ECD deletion mutant Notch1-Δ11+12 (UniProt Q01705)
V5-tagged Notch1-ECD deletion mutant Notch1-Δ11+12, sequence (Q01705 19-1725, stated change not applied): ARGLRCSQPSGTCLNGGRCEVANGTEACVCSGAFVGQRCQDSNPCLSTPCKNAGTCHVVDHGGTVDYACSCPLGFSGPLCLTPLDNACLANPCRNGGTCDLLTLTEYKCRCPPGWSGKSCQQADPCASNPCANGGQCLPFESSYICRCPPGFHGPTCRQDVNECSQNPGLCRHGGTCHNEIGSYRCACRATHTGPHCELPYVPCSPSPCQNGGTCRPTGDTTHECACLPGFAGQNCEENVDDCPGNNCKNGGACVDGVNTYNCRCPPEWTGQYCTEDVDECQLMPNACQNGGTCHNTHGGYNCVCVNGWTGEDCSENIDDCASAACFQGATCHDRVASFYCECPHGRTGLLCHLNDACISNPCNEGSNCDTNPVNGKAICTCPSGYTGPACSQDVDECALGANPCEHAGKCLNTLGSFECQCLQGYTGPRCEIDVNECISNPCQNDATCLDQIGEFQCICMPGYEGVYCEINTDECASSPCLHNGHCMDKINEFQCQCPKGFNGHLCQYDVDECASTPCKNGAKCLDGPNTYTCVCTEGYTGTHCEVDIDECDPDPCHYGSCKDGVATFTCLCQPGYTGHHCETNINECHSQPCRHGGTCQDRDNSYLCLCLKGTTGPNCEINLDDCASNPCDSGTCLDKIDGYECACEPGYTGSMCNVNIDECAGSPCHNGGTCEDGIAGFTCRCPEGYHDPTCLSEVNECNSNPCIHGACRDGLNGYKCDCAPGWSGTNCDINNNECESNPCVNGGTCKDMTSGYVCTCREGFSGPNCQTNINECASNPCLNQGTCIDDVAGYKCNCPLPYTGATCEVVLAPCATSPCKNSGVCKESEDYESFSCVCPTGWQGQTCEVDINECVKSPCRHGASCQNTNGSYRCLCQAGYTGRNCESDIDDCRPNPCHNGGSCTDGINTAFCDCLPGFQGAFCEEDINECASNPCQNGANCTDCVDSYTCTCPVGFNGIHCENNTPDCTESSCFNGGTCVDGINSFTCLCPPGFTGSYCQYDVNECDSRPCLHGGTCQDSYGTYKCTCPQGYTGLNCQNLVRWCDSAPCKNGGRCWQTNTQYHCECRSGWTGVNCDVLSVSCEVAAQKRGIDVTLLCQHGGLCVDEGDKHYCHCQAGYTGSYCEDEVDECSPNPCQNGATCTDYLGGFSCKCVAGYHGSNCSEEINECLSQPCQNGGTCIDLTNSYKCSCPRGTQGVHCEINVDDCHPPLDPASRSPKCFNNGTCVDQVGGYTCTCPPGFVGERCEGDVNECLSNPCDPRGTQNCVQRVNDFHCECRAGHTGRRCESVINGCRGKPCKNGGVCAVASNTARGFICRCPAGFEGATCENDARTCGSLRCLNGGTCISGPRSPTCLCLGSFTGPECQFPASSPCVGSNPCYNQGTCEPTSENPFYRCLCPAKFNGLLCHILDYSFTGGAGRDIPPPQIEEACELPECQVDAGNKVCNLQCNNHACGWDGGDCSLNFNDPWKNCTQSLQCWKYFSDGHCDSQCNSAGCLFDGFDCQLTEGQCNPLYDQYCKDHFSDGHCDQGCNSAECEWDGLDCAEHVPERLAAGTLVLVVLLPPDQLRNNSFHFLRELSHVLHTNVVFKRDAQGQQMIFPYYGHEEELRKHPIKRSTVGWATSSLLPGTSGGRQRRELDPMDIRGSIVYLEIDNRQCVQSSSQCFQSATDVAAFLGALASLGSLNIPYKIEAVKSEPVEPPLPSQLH

[5] = biological target: V5-tagged Notch1-ECD deletion mutant Notch1-Δ8 (UniProt Q01705)
V5-tagged Notch1-ECD deletion mutant Notch1-Δ8, sequence (Q01705 19-1725, stated change not applied): as above

[6] = biological target: V5-tagged Notch1-ECD deletion mutant Notch1-Δ5–10 (UniProt Q01705)
V5-tagged Notch1-ECD deletion mutant Notch1-Δ5–10, sequence (Q01705 19-1725, stated change not applied): as above

T1 sequence (O35516 26-1679): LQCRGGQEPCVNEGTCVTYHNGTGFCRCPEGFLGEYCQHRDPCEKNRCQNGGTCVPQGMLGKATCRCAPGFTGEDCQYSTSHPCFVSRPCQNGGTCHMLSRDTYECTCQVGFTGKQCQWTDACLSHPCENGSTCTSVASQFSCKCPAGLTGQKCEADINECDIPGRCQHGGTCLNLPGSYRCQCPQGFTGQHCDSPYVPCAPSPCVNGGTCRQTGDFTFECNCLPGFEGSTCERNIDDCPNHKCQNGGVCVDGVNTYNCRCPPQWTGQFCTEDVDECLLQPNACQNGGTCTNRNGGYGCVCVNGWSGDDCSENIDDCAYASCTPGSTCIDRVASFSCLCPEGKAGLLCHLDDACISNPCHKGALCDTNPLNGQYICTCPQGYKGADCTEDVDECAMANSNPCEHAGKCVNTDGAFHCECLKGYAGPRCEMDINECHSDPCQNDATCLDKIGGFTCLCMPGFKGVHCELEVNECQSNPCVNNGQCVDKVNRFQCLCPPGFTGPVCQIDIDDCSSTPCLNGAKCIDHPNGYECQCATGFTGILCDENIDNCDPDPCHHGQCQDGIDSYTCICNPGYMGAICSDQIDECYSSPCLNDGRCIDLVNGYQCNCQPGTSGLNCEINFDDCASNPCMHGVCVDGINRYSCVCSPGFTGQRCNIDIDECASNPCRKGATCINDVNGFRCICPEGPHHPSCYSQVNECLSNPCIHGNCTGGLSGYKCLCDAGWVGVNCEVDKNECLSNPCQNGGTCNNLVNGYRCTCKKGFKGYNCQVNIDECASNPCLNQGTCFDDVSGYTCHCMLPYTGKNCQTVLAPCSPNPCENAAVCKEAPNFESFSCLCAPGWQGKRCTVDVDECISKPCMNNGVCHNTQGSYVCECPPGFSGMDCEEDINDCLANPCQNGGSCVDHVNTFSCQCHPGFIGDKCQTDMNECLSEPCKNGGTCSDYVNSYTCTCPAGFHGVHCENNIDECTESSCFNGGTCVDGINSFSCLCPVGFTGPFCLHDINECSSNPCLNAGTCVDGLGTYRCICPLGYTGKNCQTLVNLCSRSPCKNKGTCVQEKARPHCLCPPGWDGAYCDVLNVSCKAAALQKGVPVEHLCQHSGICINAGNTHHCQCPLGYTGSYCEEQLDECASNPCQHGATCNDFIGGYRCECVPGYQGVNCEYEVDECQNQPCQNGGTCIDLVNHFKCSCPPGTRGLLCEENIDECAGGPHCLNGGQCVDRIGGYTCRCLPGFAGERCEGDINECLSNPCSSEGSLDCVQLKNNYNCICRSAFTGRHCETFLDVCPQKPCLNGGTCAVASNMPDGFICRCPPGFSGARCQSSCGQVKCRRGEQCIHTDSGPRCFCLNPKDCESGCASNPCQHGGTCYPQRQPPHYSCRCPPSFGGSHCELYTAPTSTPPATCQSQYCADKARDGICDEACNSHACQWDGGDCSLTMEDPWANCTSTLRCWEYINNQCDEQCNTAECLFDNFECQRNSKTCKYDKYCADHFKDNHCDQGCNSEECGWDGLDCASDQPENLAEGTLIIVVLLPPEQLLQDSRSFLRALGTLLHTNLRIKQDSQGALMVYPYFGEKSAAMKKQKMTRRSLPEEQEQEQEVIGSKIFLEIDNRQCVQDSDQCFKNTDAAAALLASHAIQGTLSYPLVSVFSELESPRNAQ

binding relative to Notch1-ECD [1]: ~76% | binding relative to Notch1-ECD [2]: ~35% | binding relative to Notch1-ECD [3]: ~41% | change in binding relative to Notch1-ECD [4]: -26% | change in binding relative to Notch1-ECD [5]: -28% | change in binding relative to Notch1-ECD [6]: -18%
B1: Flag-tagged EGFL7 (epidermal growth factor-like protein 7) (natural protein, UniProt Q9QXT5 22-275, looked up)
chain: EHVYRPSRRVCTVGISGGSISETFVQRVYQPYLTTCDGHRACSTYRTIYRTAYRRSPGVTPARPRYACCPGWKRTSGLPGACGAAICQPPCGNGGSCIRPGHCRCPVGWQGDTCQTDVDECSTGEASCPQRCVNTVGSYWCQGWEGQSPSADGTRCLSKEGPSPVAPNPTAGVDSMAREEVYRLQARVDVLEQKLQLVLAPLHSLASRSTEHGLQDPGSLLAHSFQQLDRIDSLSEQVSFLEEHLGSCSCKKDL
notes: epidermal growth factor-like protein 7 (EGFL7); the same molecule is used here; source: HEK293, transiently transfected, in lysate

Source: PMC5493759, “Neurovascular EGFL7 regulates adult neurogenesis in the subventricular zone and thereby affects olfactory perception” (Nature Communications, 2017)
